13 sequences from the DeepSol protein solubility set can be followed below.

The nature of this series: soluble on expression in E. coli; label from the status in PepcDB or PDB records.
As to “MEFAAENEGKSGGGLHSVAEGVRLSPEPGREGVRDLAGAEEFGGGEEGTGLTGIKEIGDGEEGSGQRPEEIPMDLTVVKQEIIDWPGTEGRLAGQWVEQEVEDRPEVKDENAGVLEVKQETDSSLVVKEAKVGEPEVKEEKVKEEVMDWSEVKEEKDNLEIKQEEKFVGQCIKEELMHGECVKEEKDFLKKEIVDDTKVKEEPPINHPVGCKRKLAMSRCETCGTEEAKYRCPRCMRYSCSLPCVKKHKAELTCNGVRDKTAYISIQQFTEMNLLSDYRFLEDVARTADHISRDAFLKRPISNKYMYFMKNRARRQGINLKLLPNGFTKRKENSTFFDKKKQQFCWHVKLQFPQSQAEYIEKRVPDDKTINEILKPYIDPEKSDPVIRQRLKAYIRSQTGVQILMKIEYMQQNLVRYYELDPYKSLLDNLRNKVIIEYPTLHVVLKGSNNDMKVLHQVKSESTKNVGNEN”, the “soluble on expression in E. coli” value is “soluble”.

With “MTKDQNGTWEMESNENFEGYMKALDIDFATRKIAVRLTQTKIIVQDGDNFKTKTNSTFRNYDLDFTVGVEFDEHTKGLDGRNVKTLVTWEGNTLVCVQKGEKENRGWKQWVEGDKLYLELTCGDQVCRQVFKKK”, the “soluble on expression in E. coli” value was “soluble”.

With “MSDAGGDVQVAPAAVAQGPMDKEGALRAVLRAAHHADGLAKGLHETCKALDKREAHFCVLAENCDEPQYVKLVETLCAEHQIPLIKVADKKIIGEYCGLCKYDKEGKARKVVGCSSAVVTNWGNEEQGRAILTDYFASKN”, the “soluble on expression in E. coli” value is on record as “not soluble”.

In the case of “MRVGLFTDSYFPQISGVATSIRTLALELEKLGHEVFIFTTTDPNADVDHERNIIRLQSIPFVSLAERKIVLKGVFAAYLIAKEYDLDIIHTQTEFGMGILGKMVAAQLRIPVIHTLHTKYEDYVYYIAKGRLIRPSMVKYIIRNFLRGTEAIICPSEMVLETVNSYGVTLPKRVIPTGIEIDRFKRDDIEPEETAKLRVELGLAENEIMLLSLSRIAAEKNIQAVIHALPDILEEFPVKLVIVGHGPYAENLKELVKELELTDKVVFTGPVENEKTAYYYKAADFFISASTSETQGLTYLEAMAAGTRVLAAKNPYLSELINDDEFGQLFIGDDDLAEVTKKAIRDLHPIDKDKFEKKLYEISAENFAKKVYLFYIDTIIEYNNLKSIEAERFPMKMEDTIRQMPVTVKRSLKREQIRAKYFARKASKLAKNLQSYVKIDKDKEQDLEHHHHHH”, the “soluble on expression in E. coli” value is given as “soluble”.

Regarding “SNAMKIAVINGGTRSGGNTDVLAEKAVQGFDAEHIYLQKYPIQPIEDLRHAQGGFRPVQDDYDSIIERILQCHILIFATPIYWFGMSGTLKLFIDRWSQTLRDPRFPDFKQQMSVKQAYVIAVGGDNPKIKGLPLIQQFEHIFHFMGMSFKGYVLGEGNRPGDILRDHQALSAASRLLKRSDAI”, the “soluble on expression in E. coli” value was “soluble”.

With “MQIKDEILSLLKRGKNLLAFSYGSDSSVLFYLLMQEKIDFDLVMINYKTRKNSDLEELKAKELALKFHKKIFIKHAPKFQSNFEKKARDFRYDFFEKICLEQGYDHLILAHHLNDQFEWFLMQLSRGAGLAEILGMQECEKRSNYTLLRPLLFISKDEISSFLKEKDIFYFHDES”, the “soluble on expression in E. coli” value is “not soluble”.

In the case of “KLKARSIKIQRRMDAILLRMPIFGDIVRKGTIARWGRTTATLIAAGVPLVDVLDSTAGAAGNLIYEEATREIRTRVIQGLSMTSGMRATELFPNMMLQMSSIGEESGSLDDMLNKAAEFYEDEVDNAVGRLSAMMEP”, the “soluble on expression in E. coli” value is recorded as “not soluble”.

Regarding “MSLIPIDYLRASRKGREVRPRYLNDDKIASEVINMAKSAKTLGEFRNAVELISSDKKLVRGLAHVLEQLIEIEKIDSKLVTRTRLEVFKAASALGYPLTEEERERVFQTVAARLKMGVNEVKALFLKAYEENRLIVKAPDIQPKQLVEMYNLALIQALLFKSLYVKALLPNAPALLKGLIRAVKGLGLMYIVEINGGQLEFRFDGPVSALRQTERYGTRLAKLVPYITSAEKWEIEAQVKLGERIYVFKESGRTAPPLPKTPPHAEQFDSLVEQEFYKQVSKICHVEREPEALVVDGRVYIPDFKIGDLYVEIVGFWTPDYLKRKYEKITKVGKPLLVLVSEELAMATWKQLMPNVVVFKDRPRLSDVFKYIKPYCVNHREGHHHHHH”, the “soluble on expression in E. coli” value is on record as “not soluble”.

On to “MTPISGRCEMAEVTNIPNPGHTSSWYAASANVKSVRPTLEGALEADVCIIGGGFTGISAALELSERGYAVIVLEGVRVGFGASGRNGGQIVNGYSRDLETIARRYGHEKAVKLGEMSLEGGTIIRSRVAKYGIDCDLVDGGFFAAFTPKQIREMEAHKAHWEKHGHGGLEMVSEADVGQYVKTNRYAGGMIDRFGGHIHPLNLVQGEAAAAESLGARIFENSRVIAVEQGANPIVRTAMGSVKAKYVLVCGNAYLGTLLPEIGERMMPVSSQVMATEPLDADLIEALLPANYCVEDANYILDYYRRTSDNRLLYGGGIGYGGSDPADLTGVIRPNMLKTFPQLEKTKIEFAWSGNFALTLTRIPHMGRLSDNIYFSHGDSGHGVTTTHLLGKILGEAVAGHAERFDIWSSLPNYPFPGGKTFRVPLTMLGAWWYGLRDKLGLLEHHHHHH”, for which the “soluble on expression in E. coli” value was “not soluble”.

Turning to “GPGSMKTIALLSGGKDSILAMLMAHRYGHEPVVIANMAPVLESDGALRGAAENGTHGHDIDSYMYQTVGFEAVDSIAACLGLPLRRGRVRRGLAKDQSLLYSEQPPEEDEVESLYSLIRTVKEEFPEVQGLTSGAILSNYQRNRVELICDRLGLESLAYLWMRQPDEILDMADALHVQAILVKTASIGLMPRCLIGKTLEEARPTLEKMAELYHSHLAGEGGEYETIVLNCPLFHAEHLTVTALEVVMQDDNDISPSGHGLLTVARVPKSVEQQAKEAEVLARVRAGAVTFPSDTMPLLRSCAVYPLALSATASARGPGETIDLPLPATIRSALFLGSGTAAARDGIAHHTYASPLEAGASAAEALNACLTVLQTWAAERSLTPFYYHFSLPEPSWEVSCRAAYAGKVSHVCPPGLLVTVRDSRSRSAAAVEAEVLAAPTAAIQQHVLHAQSRSCWALGEPGPHSQARRVGLATGTSRLFVSATPGRVPATREVATASDLPAVCQQCITALAAAQHGEETSAALTDIAAQFVVAMSNCERYLTLFGCSFGDVDRAAVVATDDVPVSLLPALWQWTTQNTGALPFERVCQVVVVGALSGTEKIRVSMECVEVRGGGG”, the “soluble on expression in E. coli” value is recorded as “not soluble”.

Regarding “SAKFVIAGRADCPYYAKTELVADYLQKNLPDFRIHKITQRPEVWEDWLKDVCEKNKWSHKNSPIIWRELLDRGGKGLLLGGYNEFLEHAQLYYDVTSSMTTELMMVIAQENLGAHIEKEQEEEALKTCINPLQVWITSEWVKREFVAILKNLTTTGRQFGGILAAHSIATTLKYWYHGSPPGEIVSLGILSEGQFGIPKGIVFSMPVKFENGTWVVLTDLKDVEISEQIMTRMTSDLIQEKLVALGDKIHFQPYQSDTPRTNTLHPSIQSSWHSVLTITIRKR”, the “soluble on expression in E. coli” value is “soluble”.

Consider “MGSDKIHHHHHHMAIITRIEVQKRNNERYNIFIHQNGQDVYAFSVDEQVLIKQGLRKGLDIDAEQMKQILYEDEVQKTFNLALHYLSYRMRSVHEVRTYLKKKDREEPIIEHVLHRLTEQRLLDDHAFAEAFIQTKRATTSKGPLKLKQELAEKGVSEKTIEGALTTFSYEEQVEQVKAWLEKQKGRTFKGSSLAWKQKLSRQLLAKGYTSPVIEEAFADVPIKQEEEEEWEALKAFGEKAMRKYAGKKTGWELQQKVKQALYRKGFSLEMIERYLND”, for which the “soluble on expression in E. coli” value is on record as “not soluble”.

Take “MSLTDAKHGETIQGPMSYGHWIAGRETHSGGASFPSHNPTTGAEWGRFALGSQDTVGDAVAAATAAFEGAEWSSLSPTRRGRLMMRWGDAIAQHAEKLGALETSQNGKLLSEMVLQARIVPDWLYYYGGLADKIEGRVIPVERRSVLNYTRREALGVVGVIMPWNSPLFLTTMAVAPALAAGNTVVIKPSEVSSASIIEAVKLAEQIGFPRGVLNVVTGGRETAEALIDHCGVAKIAFTGGVEAGRAVGVRAARRMAQVTLELGGKSANIVFPDADLAQARAGLLAGIFAAAGQTCVAGSRAFVHRSIHDRLLAELAERAKNIRIGNPLDPATQMGPVATKAQLDKDESMVRRAIDEGAQVVHGGCRAAVDGFPGGYFYTPTILTGVSPGSYIAQNEVFGPVLSVIPFDDEDEVIALANGTGFGLAAGIWSLNIRQAHRVANQLQAGTVWVNMYRAMSFNSPFGGYKASGIGRQNGIEAIDSYLQTKSIWCELSQEEGHHHHHH”: the “soluble on expression in E. coli” value is listed as “not soluble”.
